{"source": "paper PMC8591604", "about": "“Targeting Oncogenic Src Homology 2 Domain-Containing Phosphatase 2 (SHP2) by Inhibiting Its Protein–Protein Interactions” (Journal of Medicinal Chemistry, 2021)", "key": {"[1]": {"target": "N-SH2 domain of SHP2 (residues 2–111) (human) (UniProt Q06124)"}, "[2]": {"target": "N-SH2 domain of SHP2 (residues 2–111) (human) (UniProt Q06124)", "remark": "listed apart in the source"}, "[3]": {"target": "N-SH2 domain of SHP2 (residues 2–111) (human) (UniProt Q06124)", "experiment": "fluorescence polarisation; fluorescence anisotropy, displacement: 0.10 nM CF-P9W5 (0.5 nM for P8 and OP) with […] N-SH2 titrated with unlabelled peptide; fluorescence buffer"}}, "note": "Where two headings read alike, the source gives them in different places."}
{"substance": "CF-P9, fluorescently labeled IRS-1 pY1172 analogue (nine residues) (peptide)", "values": [{"measurement": "Kd", "setting": "[1]", "value": 53, "unit": "nM"}]}
{"substance": "CF-P9Y0, unphosphorylated analogue of the labeled IRS-1 pY1172 peptide", "values": [{"measurement": "Kd", "setting": "[2]", "value": 6600, "unit": "nM"}]}
{"substance": "P8W5, P8 analogue with W at position +5 (peptide)", "values": [{"measurement": "Kd", "setting": "[3]", "value": 1.6, "unit": "nM"}]}
